Measured values from paper PMC10767040, “Helical reconstruction of VP39 reveals principles for baculovirus nucleocapsid assembly” (Nature Communications, 2024).

Biological target: the molecule itself
Test: cryo-EM structure; helical reconstruction (D14, rise 43.86 Å, twist -7.16°) of AcMNPV nucleocapsids purified from Sf9 cells, on graphene-coated grids; local reconstruction of four adjacent VP39 dimers

B1: Autographa californica multiple nucleopolyhedrovirus (AcMNPV) major capsid protein VP39 (natural protein)
chain: MALVPVGMAPRQMRVNRCIFASIVSFDACITYKSPCSPDAYHDDGWFICNNHLIKRFKMSKMVLPIFDEDDNQFKMTIARHLVGNKERGIKRILIPSATNYQDVFNLNSMMQAEQLIFHLIYNNENAVNTICDNLKYTEGFTSNTQRVIHSVYATTKSILDTTNPNTFCSRVSRDELRFFDVTNARALRGGAGDQLFNNYSGFLQNLIRRAVAPEYLQIDTEELRFRNCATCIIDETGLVASVPDGPELYNPIRSSDIMRSQPNRLQIRNVLKFEGDTRELDRTLSGYEEYPTYVPLFLGYQIINSENNFLRNDFIPRANPNATLGGGAVAGPAPGVAGEAGGGIAV
notes: VP39, the 39 kDa major capsid protein of Autographa californica multiple nucleopolyhedrovirus, as assembled in the nucleocapsid; the first 11 residues of the N terminus and the last 27 residues of the C terminus are unresolved in the model; The virus's own VP39 from the bacmid backbone; the decahistidine or FLAG tags were on unrelated human constructs, not on VP39; In the sample VP39 stood as …
stoichiometry N: 2
